The chains are these.
B1: m102.4 VH K31A (antibody, V domains shown)
VH: EVQVIQSGADVKKPGSSVKVSCKSSGGTFSAYAINWVRQAPGQGLEWMGGIIPILGIANYAQKFQGRVTITTDESTSTAYMELSSLRSEDTAVYYCARGWGREQLAPHPSQYYYYYYGMDVWGQGTTVTVSS
VL: EIVMTQSPGTLSLAPGERATLSCWASQSVRNNYLAWYQQKPGQAPRLVIYNGSTRATGIPDRFSGSGSGTDFTLTISRLDPEDFAVYYCQQYGNSRRVTFGGGTKVEIK
B2: m102.4 VH A106W (antibody, V domains shown)
VH: B1 VH with A31K, A106W
VL: B1 VL
B3: m102.4 VH R102A (antibody, V domains shown)
VH: B1 VH with A31K, R102A
VL: B1 VL
B4: m102.4 VH P109A (antibody, V domains shown)
VH: B1 VH with A31K, P109A
VL: B1 VL
B5: m102.4 VH Q104A (antibody, V domains shown)
VH: B1 VH with A31K, Q104A
VL: B1 VL
B6: m102.4 VH S110A (antibody, V domains shown)
VH: B1 VH with A31K, S110A
VL: B1 VL
B7: m102.4 VH L105A (antibody, V domains shown)
VH: B1 VH with A31K, L105A
VL: B1 VL
B8: m102.4 VH I54A (antibody, V domains shown)
VH: B1 VH with A31K, I54A
VL: B1 VL
B9: m102.4 VH I57A (antibody, V domains shown)
VH: B1 VH with A31K, I57A
VL: B1 VL
B10: m102.4 VH P107A (antibody, V domains shown)
VH: B1 VH with A31K, P107A
VL: B1 VL
B11: m102.4 VH G56A (antibody, V domains shown)
VH: B1 VH with A31K, G56A
VL: B1 VL
B12: m102.4 VH Q111A (antibody, V domains shown)
VH: B1 VH with A31K, Q111A
VL: B1 VL
B13: m102.4 VH H108A (antibody, V domains shown)
VH: B1 VH with A31K, H108A
VL: B1 VL
B14: m102.4 VL R30A (antibody, V domains shown)
VH: B1 VH with A31K
VL: B1 VL with R30A
notes: also called LC:R30 to alanine
B15: m102.4 VH Y114A (antibody, V domains shown)
VH: B1 VH with A31K, Y114A
VL: B1 VL
B16: m102.4 VH E103A (antibody, V domains shown)
VH: B1 VH with A31K, E103A
VL: B1 VL
B17: m102.4 VH L55A (antibody, V domains shown)
VH: B1 VH with A31K, L55A
VL: B1 VL
B18: m102.4 VH Y113A (antibody, V domains shown)
VH: B1 VH with A31K, Y113A
VL: B1 VL
B19: m102.4 VH Y112A (antibody, V domains shown)
VH: B1 VH with A31K, Y112A
VL: B1 VL

Substitutions are numbered along the chain they refer to. Names and notes keep the numbering of the source.

For 19 molecules, Kd results are on record in PMC7588459 (Scientific Reports, 2020).

This test concerns the target T1, Nipah virus attachment (receptor-binding) glycoprotein (GP), wild type (Nipah virus; strain of the assayed …, UniProt Q9IH62).
T1 construct: source: HEK 293-F FreeStyle, transiently transfected, purified from supernatant (Ni-NTA)
Nature of the test: ELISA. As to conditions: both partners purified. For orientation: An ELISA detects its analyte on a solid surface through an enzyme-linked reagent.
On to B1, for which the dissociation constant (Kd) – broadly, a measure of binding affinity in units of concentration – was found to be 80 pM.
On to B2, for which binding was put at a Kd of 4950 pM.
The same measure for B3: 90 pM; for B4: 100 pM.
In turn, B5 yielded a Kd of 100 pM.
On to B6, for which binding was characterised by a dissociation constant (Kd) of 130 pM.
The same measure for B7: 100 pM; for B8: 130 pM; for B9: 100 pM.
For B10, binding was put at a Kd of 90 pM.
Consider B11, for which binding was characterised by a dissociation constant (Kd) of 90 pM.
To B12 belongs 80 pM.
B13 came in with a Kd of 90 pM.
To B14 belongs 130 pM; to B15, 70 pM; to B16, 1830 pM.
The same measure for B17: 100 pM.
To B18 belongs 120 pM.
As to B19, the dissociation constant (Kd) came to 110 pM.
